Test [1] has as its target Armitage KEE-Flag (D. melanogaster) (UniProt Q6J5K9). Put plainly: co-IP.
Test [2] concerns the target Armitage ΔN34-Flag (D. melanogaster) (UniProt Q6J5K9). Briefly: co-IP.

Turning to “Daedalus (Daed), endogenous in OSCs (natural protein)”, the binding efficiency relative to WT Armi came out at 34% in test [1] and 20% in test [2].

For the origin of these results see paper doi:10.1101/2024.06.02.596995.
